B1: STAT5B (unphosphorylated, wild-type), fluorophore fusion [not stated] / STAT5A (unphosphorylated, wild-type), fluorophore fusion [not stated] (parent complex)
chain 1: MAVWIQAQQLQGEALHQMQALYGQHFPIEVRHYLSQWIESQAWDSVDLDNPQENIKATQLLEGLVQELQKKAEHQVGEDGFLLKIKLGHYATQLQNTYDRCPMELVRCIRHILYNEQRLVREANNGSSPAGSLADAMSQKHLQINQTFEELRLVTQDTENELKKLQQTQEYFIIQYQESLRIQAQFGPLAQLSPQERLSRETALQQKQVSLEAWLQREAQTLQQYRVELAEKHQKTLQLLRKQQTIILDDELIQWKRRQQLAGNGGPPEGSLDVLQSWCEKLAEIIWQNRQQIRRAEHLCQQLPIPGPVEEMLAEVNATITDIISALVTSTFIIEKQPPQVLKTQTKFAATVRLLVGGKLNVHMNPPQVKATIISEQQAKSLLKNENTRNDYSGEILNNCCVMEYHQATGTLSAHFRNMSLKRIKRSDRRGAESVTEEKFTILFESQFSVGGNELVFQVKTLSLPVVVIVHGSQDNNATATVLWDNAFAEPGRVPFAVPDKVLWPQLCEALNMKFKAEVQSNRGLTKENLVFLAQKLFNNSSSHLEDYSGLSVSWSQFNRENLPGRNYTFWQWFDGVMEVLKKHLKPHWNDGAILGFVNKQQAHDLLINKPDGTFLLRFSDSEIGGITIAWKFDSQERMFWNLMPFTTRDFSIRSLADRLGDLNYLIYVFPDRPKDEVYSKYYTPVPCESATAKAVDGYVKPQIKQVVPEFVNASADAGGGSATYMDQAPSPAVCPQAHYNMYPQNPDSVLDTDGDFDLEDTMDVARRVEELLGRPMDSQWIPHAQS
chain 2: MAGWIQAQQLQGDALRQMQVLYGQHFPIEVRHYLAQWIESQPWDAIDLDNPQDRAQATQLLEGLVQELQKKAEHQVGEDGFLLKIKLGHYATQLQKTYDRCPLELVRCIRHILYNEQRLVREANNCSSPAGILVDAMSQKHLQINQTFEELRLVTQDTENELKKLQQTQEYFIIQYQESLRIQAQFAQLAQLSPQERLSRETALQQKQVSLEAWLQREAQTLQQYRVELAEKHQKTLQLLRKQQTIILDDELIQWKRRQQLAGNGGPPEGSLDVLQSWCEKLAEIIWQNRQQIRRAEHLCQQLPIPGPVEEMLAEVNATITDIISALVTSTFIIEKQPPQVLKTQTKFAATVRLLVGGKLNVHMNPPQVKATIISEQQAKSLLKNENTRNECSGEILNNCCVMEYHQATGTLSAHFRNMSLKRIKRADRRGAESVTEEKFTVLFESQFSVGSNELVFQVKTLSLPVVVIVHGSQDHNATATVLWDNAFAEPGRVPFAVPDKVLWPQLCEALNMKFKAEVQSNRGLTKENLVFLAQKLFNNSSSHLEDYSGLSVSWSQFNRENLPGWNYTFWQWFDGVMEVLKKHHKPHWNDGAILGFVNKQQAHDLLINKPDGTFLLRFSDSEIGGITIAWKFDSPERNLWNLKPFTTRDFSIRSLADRLGDLSYLIYVFPDRPKDEVFSKYYTPVLAKAVDGYVKPQIKQVVPEFVNASADAGGSSATYMDQAPSPAVCPQAPYNMYPQNPDHVLDQDGEFDLDETMDVARHVEELLRRPMDSLDSRLSPPAGLFTSARGSLS

Variants of: B1
Assay: co-localization assay (quantitative fluorescence microscopy in HeLa cells); bait S5A-NES, test S5B-L82A; 27 cells (parent 17 cells); parent: 0.97

screen value | Variant
0.65 | chain 1 L82A

Reference: PMC10200994 (2023)
